Results on 36 sequences are retold here after the Immune Epitope Database (IEDB).

Targets include HLA-A*68:01; HLA-A*03:01; HLA-A*33:01; HLA-A*11:01; HLA-A*31:01.
Common to all, as to experiment: IEDB peptide-MHC binding, purified MHC/competitive/radioactivity; filed as Kd, often an IC50 or EC50 that approximates it; ≥ and ≤ were set here for values at or beyond the usual limits of such assays
Setting [1] is: source organism: Vaccinia virus WR.
Where [2] appears, read: source organism: SARS coronavirus Tor2.
[3] abbreviates: source organism: Lassa virus Josiah.
The mark [4] stands for this setting: source organism: Dengue virus 2 Jamaica/1409/1983.
[5] abbreviates: source organism: Dengue virus 4 Philippines/H241/1956.
Setting [6] is: source organism: Mammarenavirus guanaritoense.
Setting [7] is: source organism: Dengue virus 3 Martinique/1243/1999.
Where [8] appears, read: source organism: Dengue virus 1 Singapore/S275/1990.
[9] abbreviates: source organism: Dengue virus 1 Brazil/97-11/1997.
Where [10] appears, read: source organism: Dengue virus 2 Peru/IQT2913/1996.

As to FISDNKKEY, the Kd in the assay with HLA-A*68:01 (setting [1]) was 7.07 µM; with HLA-A*03:01 (setting [1]), ≥ 78 µM; with HLA-A*33:01 (setting [1]), ≥ 77.7 µM; with HLA-A*11:01 (setting [1]) it was ≥ 77.9 µM; with HLA-A*31:01 (setting [1]), ≥ 77.9 µM.

Consider FLELKRGIY, for which the Kd with HLA-A*68:01 (setting [1]) was 1.88 µM; in the assay with HLA-A*03:01 (setting [1]), ≥ 78 µM; with HLA-A*33:01 (setting [1]), 4.54 µM; with HLA-A*11:01 (setting [1]), 10.7 µM; with HLA-A*31:01 (setting [1]) it was 2.2 µM.

As to FTSTNDKIK, the Kd in the assay with HLA-A*68:01 (setting [1]) was 0.113 µM; in the assay with HLA-A*03:01 (setting [1]), 1.19 µM; with HLA-A*33:01 (setting [1]), ≥ 77.7 µM; with HLA-A*11:01 (setting [1]), 0.0588 µM; with HLA-A*31:01 (setting [1]) it was 15.2 µM.

Regarding GALDTTSYR, the Kd turned out to be 0.0684 µM in the assay with HLA-A*68:01 (setting [2]); 6.6 µM in the assay with HLA-A*03:01 (setting [2]); 1.4 µM with HLA-A*33:01 (setting [2]); 0.0263 µM in the assay with HLA-A*11:01 (setting [2]); 0.0865 µM with HLA-A*31:01 (setting [2]).

Turning to GFAAYNRYR, the Kd with HLA-A*68:01 (setting [2]) is ≥ 27 µM; with HLA-A*03:01 (setting [2]) it was 5.71 µM; with HLA-A*33:01 (setting [2]), 9.67 µM; in the assay with HLA-A*11:01 (setting [2]), 6.57 µM; with HLA-A*31:01 (setting [2]), 0.821 µM.

In the case of GFEARIVDK, the Kd with HLA-A*68:01 (setting [1]) was 16.3 µM; with HLA-A*03:01 (setting [1]), ≥ 41 µM; in the assay with HLA-A*33:01 (setting [1]), 10.3 µM; in the assay with HLA-A*11:01 (setting [1]) it was 9.03 µM; with HLA-A*31:01 (setting [1]) it was 1.6 µM.

With GIPYCNYSK, the Kd with HLA-A*68:01 (setting [3]) was 0.444 µM; with HLA-A*03:01 (setting [3]) it was 3.33 µM; with HLA-A*33:01 (setting [3]) it was ≥ 24.2 µM; in the assay with HLA-A*11:01 (setting [3]), 0.118 µM; with HLA-A*31:01 (setting [3]), ≥ 45 µM.

Regarding GLLLRKLTSK, in the assay with HLA-A*03:01 (setting [4]), the Kd stood at 0.0396 µM.

GVAPGTAVLR: the Kd was 0.0432 µM with HLA-A*68:01 (setting [2]); 1.32 µM with HLA-A*03:01 (setting [2]); ≥ 41.9 µM with HLA-A*33:01 (setting [2]); 0.165 µM in the assay with HLA-A*11:01 (setting [2]); 2.85 µM with HLA-A*31:01 (setting [2]).

On to IISDMYDPR, for which the Kd with HLA-A*68:01 (setting [2]) was 0.00541 µM; with HLA-A*03:01 (setting [2]), 12.8 µM; with HLA-A*33:01 (setting [2]), 1.34 µM; in the assay with HLA-A*11:01 (setting [2]), 0.122 µM; with HLA-A*31:01 (setting [2]) it was 0.325 µM.

For the sequence IIVLFQRFLR, the Kd came to 0.00305 µM in the assay with HLA-A*68:01 (setting [1]); 0.941 µM with HLA-A*03:01 (setting [1]); 0.0131 µM in the assay with HLA-A*33:01 (setting [1]); 0.0443 µM in the assay with HLA-A*11:01 (setting [1]); 0.00133 µM with HLA-A*31:01 (setting [1]).

Turning to ILAEYIRHR, the Kd came out at 0.015 µM with HLA-A*68:01 (setting [1]); 0.0775 µM in the assay with HLA-A*03:01 (setting [1]); 0.0484 µM with HLA-A*33:01 (setting [1]); 1.45 µM with HLA-A*11:01 (setting [1]); 0.0136 µM with HLA-A*31:01 (setting [1]).

With ISIISIRPR, the Kd is 0.0434 µM with HLA-A*68:01 (setting [1]); ≥ 24.1 µM in the assay with HLA-A*03:01 (setting [1]); 0.701 µM with HLA-A*33:01 (setting [1]); 0.263 µM with HLA-A*11:01 (setting [1]); 0.00369 µM with HLA-A*31:01 (setting [1]).

On to ISSVLTILYY, for which the Kd with HLA-A*68:01 (setting [1]) was 0.162 µM; with HLA-A*03:01 (setting [1]) it was 0.561 µM; with HLA-A*33:01 (setting [1]), 1.43 µM; with HLA-A*11:01 (setting [1]) it was 0.155 µM; in the assay with HLA-A*31:01 (setting [1]), 5.89 µM.

As to KFQPESPAR, the Kd with HLA-A*31:01 (setting [5]) was 0.0642 µM.

In the case of KGLGHDFLR, the Kd with HLA-A*68:01 (setting [6]) is ≥ 21.6 µM; with HLA-A*33:01 (setting [6]), ≥ 77.7 µM; in the assay with HLA-A*31:01 (setting [6]), 0.000134 µM.

With KISVQYNLSH, the Kd with HLA-A*11:01 (setting [3]) amounted to 0.203 µM.

Turning to KSGAIKVLK, the values for the Kd in the assay with HLA-A*03:01 (setting [7]), in the assay with HLA-A*11:01 (setting [7]) and in the assay with HLA-A*31:01 (setting [7]) were 0.104 µM, 0.15 µM and 0.00884 µM, respectively.

For KTVWFVPSIK, the results for the Kd with HLA-A*03:01 (setting [4]) and with HLA-A*11:01 (setting [4]) were 0.00664 µM and 0.0592 µM, respectively.

For the sequence LAMGIMILK, the results for the Kd in the assay with HLA-A*68:01 (setting [8]), with HLA-A*03:01 (setting [8]) and with HLA-A*11:01 (setting [8]) were 0.0306 µM, 0.0263 µM and 0.00952 µM, respectively.

Consider MALFLEEMLR, for which the Kd with HLA-A*68:01 (setting [4]) came to 0.0118 µM; with HLA-A*33:01 (setting [4]), 0.0272 µM; with HLA-A*31:01 (setting [4]) it was 0.0196 µM.

Turning to MFAVGLLFR, the Kd with HLA-A*68:01 (setting [9]) was 0.0619 µM; in the assay with HLA-A*33:01 (setting [9]), 0.00105 µM; with HLA-A*31:01 (setting [9]), ≥ 66.7 µM.

As for MGANFRADR, the Kd with HLA-A*68:01 (setting [9]) is 0.017 µM.

Turning to MSYSMCTGK, the values for the Kd with HLA-A*68:01 (setting [4]), with HLA-A*03:01 (setting [4]) and with HLA-A*11:01 (setting [4]) were 0.0818 µM, 0.00421 µM and 0.0342 µM, respectively.

On to NKKPRICTR, for which the Kd in the assay with HLA-A*33:01 (setting [9]) amounted to 2.97 µM.

Consider QTVGPWHLGK, for which the Kd with HLA-A*11:01 (setting [5]) amounted to 0.0378 µM.

For the sequence RMLINRFTMR, the Kd worked out at 0.0866 µM in the assay with HLA-A*03:01 (setting [10]), 0.162 µM with HLA-A*33:01 (setting [10]) and 0.0143 µM with HLA-A*31:01 (setting [10]).

For the sequence RTLGRNKRPR, the Kd in the assay with HLA-A*31:01 (source organism: Dengue virus 3 Sri Lanka/1266/2000) worked out at 0.00681 µM.

With RVSTGSQLAK, the Kd with HLA-A*03:01 (setting [9]) turned out to be 0.0755 µM; in the assay with HLA-A*11:01 (setting [9]), 0.0757 µM.

On to SLLGSALLK, for which the Kd in the assay with HLA-A*03:01 (setting [5]) is 0.00347 µM; with HLA-A*11:01 (setting [5]), 0.0213 µM.

Take SMFEPEREK: the Kd with HLA-A*03:01 (setting [4]) was 0.0836 µM; in the assay with HLA-A*11:01 (setting [4]) it was 1.14 µM.

In the case of SMLNIMNRR, the Kd with HLA-A*33:01 (setting [9]) came to 0.0683 µM; with HLA-A*31:01 (setting [9]), 0.00154 µM.

With TLITGNMSFR, the Kd stood at 0.0123 µM with HLA-A*68:01 (setting [4]) and 0.289 µM with HLA-A*33:01 (setting [4]).

Regarding VLLGSFGCK, the Kd with HLA-A*03:01 (setting [9]) is 0.0119 µM.

For VSTVQQLTK, the Kd in the assay with HLA-A*11:01 (setting [4]) was 0.604 µM.

For VYTQLCDHR, the Kd with HLA-A*33:01 (setting [7]) amounted to 1.9 µM.

For orientation: Kd means the free concentration of one partner at which half of the binding sites on the other are occupied at equilibrium, for simple one-to-one binding.
